Measured values: the nanobody polyreactivity screen of Harvey et al. (2022)

Test: yeast display, Sf9 membrane polyspecificity reagent, FACS + sequencing; frameworks hold sequencing errors
Procedure, shortened: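 Synthetic nanobody libraries on Saccharomyces cerevisiae BJ5465 were galactose-induced for 36–48 hours, stained 1 hour at 4 °C with 10% biotinylated, detergent-solubilized Sf9 membrane reagent and enriched on streptavidin microbeads. FACS then separated cells into low and high (top ~1%) gates by anti-HA (expression) and streptavidin (reagent binding) fluorescence. Genes were colony-PCR amplified, MiSeq 2 × 250 sequenced and CDR-length filtered. A clone's polyreactivity label is that of its gate of origin.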

Sequence	polyreactivity (PSR sort gate)
QVQLVESGGGLVQAGGSLRLSCAASGSTFYKYAMGWYRQAPGQVREVVASISSSGGSTYADSVKGRFTISRDNAKNTVYLQMNSLKPEDTAVYYCARVRWIVPWSGPTDDYWGQGTQVTVSS	low polyreactivity
QVQLVESGGCLVQAGGSLRLSCAASGLIFRKYARGWSRQAPGKERELVAAISVSGGSTYYADSVKGRFTISRDNAKNTVYLQMNSLKPEDTAVYYCAATDFGRRGGSFYYWGQGTQVTVSS	high polyreactivity
QVQLVESGGGLVQAGGSLRLICAASGRTFAINTMGWYRQAPGKERELVATISGSAGNTYYADSVKGRFTISRDNAKNTVYVQMNSLKPEDSAVYSCAARQRKARQIVLLDYWGQGTQVTVSS	high polyreactivity
QVQLVESGGGLVQAGGSLRLSCAASGRIFIYYAMGWYRQAPGKERELVAAISWGGGRTYYADSVKGRFTITRDNAKNTVYLQINSLKPEDTAVYYCAAGVYTGQHEYDYWGQGTQVTVSS	low polyreactivity
QVQRVESGGGLVQAGGSLRLTCAPSGFIFYYYAMGWYRQAPGKEMQLVAAIDSGGSTYADSVNGRFTISRDNAKNTVYLQMTSLKPEDTAVYYCAADYYLPWYPDYDYWGQGTQVTVSS	low polyreactivity
QVQLVESGGGLVQAGGSLRVSCASSGRTFSRNAMGWYRQAPGKEMELVATISRRGGSTNYADSVKGRFTISRDNAKNTVYLQMNSMKQEDTAVYYCAAGYRVRDDKVYGIVGPMDYWGQGTQVNVSS	high polyreactivity
QVQLVESGGGLVQAGGSIRLSCAASGRTFYGYAMGRYRQAPGKEREFDAAISVGGVSTYYADSVKGRFTISRDNAKNTVYLQMNSLKPEDTAVYYCAAYTRYWSYGYWGQGTQVTVSS	high polyreactivity
QVQLVESGGGLVQAGGSLRLSCAASGSIFVIYAMGWYRQAPGKERELVAAISRSGGRTYYADSVKGRFTISRDNAKNTVYLQMNSLKPEDTAVYYCAAEGSTYQGAPGVYYWGQGTQVTVSS	high polyreactivity
QVQLVQSGAGLVQAGGSLRLSCAPSGRTFWRYPMGLYRQAPGKERELVASISARGGSTYYADSVKGRFTISRDNAKNTVYLQMNSLKPEDTAVYYCKRQSWFTVGGFTYRYDYWGQGTQVTVSS	high polyreactivity
QVQLVESGGGLVQAGGSLRLSCAASGSTFKWYAMGLYRQAPGKERELVAAIDSRGGSTYYADSVKGRFTISRDNAKNTVFLQMISLKPEDTAVYYCNIYPHYSFQSHNYWGQGTQVTVSS	high polyreactivity
QVQLVESGGGLVQAGGSLRLSCAASGIIFPYYAMGWYRQAPGKERELVAAIDWSGTSTYYADSVKGRFTISRDNAKNTVYLQMNSLKPEDTAVYYCAADYPQAGLLYYYWGQGTQVTVSS	low polyreactivity
QVQLVESGGGLVQAGGSLRLSCAASGFIFTWYAMGWYRQAPGKEREFVAGISRSGGRTYYADSLKGRFTISRDNAKNTVYLQMNSQKPEDTAVYDCNAVLVGYRPYREFDHWGQGTQVTVSS	high polyreactivity
QVQLVESGGGLVQAGGSLRLSCAASGRTFIRNAMGWYRQAPGKERELVASISRRGGSTYYADSVKGRYTISRDNAKNTVYLQMNSLKPEDTAVYYCAKAYAFVTSGLGYDYWGQGTQVTVSS	high polyreactivity
QVQLVESGGGLVQAGGSLRLSSAASGRIFIRNAMGWYRQAPGKERELVAAISWSGGRTYYADSVKGRFTISRDNAKNTVYLQMNSLKPEDTAVYYCAALRYAFQYGLSYYWGQGTQVTVSS	high polyreactivity
QVQLVESGGGLVPAGGSLRLRCAASGSTFPYYAMGGYRQAPGKERELVAAIRRSGANTYYADSVKGRFTISRDNAKNTVYLQMNSLKPEDTAVYYCNVEYVISWWLYDYWGQGTQVTVSS	low polyreactivity
QVQLVESGGGLVQAGGSLRLSCAASGFTFPTYAMGWYRQAPGKERELVAALSTSGARTYYADSVKGRFTISRDNAKNTVYLQMNSLKPEDTAVYYCAVGSIYTICFRKGYRFDYWGQGTQVTVSS	high polyreactivity
QVQLVESGGGLVQAGGSLRLSCAASGSTFGVYAMGWYRQAPGKEREFVAAISSSDGSTYYADSVKGRFTISRDNAKNTVYLQMNSLKPEDTAVYYCAKRGGYIYYAVTFTAEHGYWGQGTQVTVSS	low polyreactivity
QVQLVESGGGLVQAGGSLRLSCAASGYIFKYYAMGWYRQAPGKERELVATINYSGGGTYYADSVKGRFTISRDNAKNTVYLQMNSLKPEDTAVYYCAAEHFFWGYDYWGQGTQVTVSS	high polyreactivity
QVQLVESGGGLVQAGGSLRLSCAASGSTFEIYAMGWYRQAPGKERELVAAITRSGRTNYADSVKGRFTISRDNAKNTVYLQMNSLKPEDTAVYYCAAGVWGRDRKYGYWGQGTQVTVSS	high polyreactivity
QVQLVESGGGLVQAGGSLRLSCAASGFTFGYYTMGWYRQAPGKERELVAAISWRGGRTYYADSVKGRFTISRDNAKNTVYLQMNSLKPEDTAVYYCAAEYTYGWTYRPFDYWGQGTQVTVSS	high polyreactivity
QVQLVESGGGLVQAGGSLRLSCAASGITFTSYAMGWYRQAPGKERELVAAISSSGVRTYYADSVKGRFTISRDNAKNTVYLQMNSLKPEDTAVYYCATRRRVLNCYDYWGQGTQVTVSS	high polyreactivity
QVKLVESGGGLVQAGGSLRLSCAASGRIFRFNPMGCYRQAPGKERELVAASNWRGGTTYADSVKGRFTISRDNAKNTVYLQMNSLKPEDTAVYYCNAGYGVTKWPYEERYDYWGQGTQVTLSS	high polyreactivity

Sequence	polyreactivity (PSR sort gate)
QVQLVESGGGLVQAGGSLRLSCAASGRILTFNAMGGYRQAPVKERELVASISNGGSTIYADSVKGRFSISRDNAKNTVYLQMNSLKPEDTAVYYCAALNASQGTVTFYIFDYWGQGTQVTVSS	low polyreactivity
QVQLVESGGGLVQAGGSLRLSCAASGSTFHLYAMGWYRQAPGKERELVAAITRGGGSTYYADSVKGRFTISRDYAKNTVYLQMNSLKPEDTAVYYCNARGPSSYRYEYWGQGTQVTVSS	high polyreactivity
QVQLVESGGGLVQAGGSLRLSCAASGSTFLYNRMGWYRQAPGKERELVAAISSVGSTYYADSVKGRFTISRDNAKNTVYLQMNSLKPEDSAVYYCAASYDWRAYRRDFYYWLTGDYWGQGTQVTVSS	low polyreactivity
QVQLVESGGGLVQAGGSLRLSCAASGSTFRTYAMGWYRQAPGKERELVASIDSTGSTNYADSVKGRFTISRDNAKNTVYLQMNSLKPEDTAVYYCAAETYSYPPFYAYDYWGQGTQVTVSS	low polyreactivity
QVQLVESGGGLVQAGGSLRLSCAASGATFWYNAMRWYREAPGKERELVAAITWTGDGTYYADSVKGRFTISRDNAKNTVYLQMNSLKPEDTAVYYCAAAYFQWSTSIVGLDAWYDYWGQGSQVTVSS	low polyreactivity
QVQLVESGGGLVQAGGSLRLSCAASGRTFTPYAMGWYRQAPGKERELVAAITSNSGITSYADSVKGRFTISRDNAKNTVYLQMNSLKPEDTAVYYCNADYYRYFRYYYWGQGTQVTVSS	high polyreactivity
QVQLVESGGGLFQAGGSLRLSCAASGSTFDVNTMGGYRQAPGKERELVAAIRLRGGSTYYADSVKGRFTISRYNAKNTVYLQMNSLKPEDTAVYYCAARYPWVYYDFDYWGQGTQVTVSS	low polyreactivity
QVQLVESGGGLFQAGGSLRLSCAASGFTFARYAMGWYRQAPGKEWELVARISWSGGSTYYADSVKGRFTISRDYAKNTFYLQMYSLKPQVTEVYYCAADGWYYRYPRDDYWGQGTQVTVSS	low polyreactivity
QVQLVESGGGLVQAGGSLRLSCAASGRTGVNAMGWYRQAPGKERGLVAAINTSVGRTYYADSVKGRFTISRDNAKNTVYLQMNSLKQEDTAVYYCNTDRLGAARYDYWGHGTQVTVSS	low polyreactivity
HVQLVESGGRLVQAGGSLRLSCAASGSIFVPNAMGWYRQAPGKERELVATISWSGGSTYADCVKGRFTISRDNAKNTVYLQMKSLKPEDTAVYYCNARRYDPGSRYDYWGQGTQVTVSS	low polyreactivity
QVQLVESGGGLVQAGGSLRLTCAASGSTFVNYTMGWYRQAPGKERELVAAIRYRDGSTYYADSVKGRFTISRDNAKNTVYLQMNSLKPEDTAVYYCNTRITQVGDYIYDYWGQGTQVTVSS	low polyreactivity
QVQLVESGGGLVQAGGSVRLSCAASGFTFGYYAMGWYRQAPGKERELVASISSVDNTYYADSVKGRFTISRDNAKNTVSFQMNSLKPEDTAVDYCAARYRDYFVRGGYWGQGTQVSVSS	high polyreactivity
QVQLVESGGGLVQAGGSLRLSCAASGSTFFSYDMGWYRQAPGKERELVATISTSVGRTYYADSVKGRFTISRDNAKNTVYLLMNSLKPEDTAVYYCNSDSLGYLYNYYWPAYDHWGQGTQVTVSS	low polyreactivity
QVQLVESGGGLVQAGGSLRLSCAASGRIFSYNAMGFYRQAPGKERELVAGITYGSTYYADSVKGRFTISRDNAKNTVYLQMNSLKPEDTAVYYCAADLSYTSVHGYRSDTLMDYWGQGTQVTVSS	low polyreactivity
QVQLVESGGGLVQAGGSLPLSCAASGRTFDVYPMGWYRQAPGKERELVAAINGGGSTYYADSVKGRFTISRDNAKNTVYLQINSLKPEDTALYYCAAKFRAGRSSYYWGQGTQVTVSS	high polyreactivity
QVQLVESGGGLVQAGGSLRLSCAASGLTFYTYAMGWYRQAPGKERELVAAISGGGRTHYADSVKGRFTISRDNAKNTVYLQMNSLKPEDTAVYYCAKDKGFLVRYDDLHDYDYWGQGTQVTVSS	low polyreactivity
QVQLVESGGGLVQAGGSLRLSCAASGITFSRNAMGWYRQAPGTDRELGAVISTRGGRTYYADSVKGRFTISRDNAKNTVYLQMNSLKPEDTAVYYCAASPDPYWRRMDYWGQGTQVTVSS	high polyreactivity
QVQLVESGGGLVQAGGSLRLSCAASGRTFPSYAMGWYRQAAGKERELVAAITVSGGNTYYADSVKGRFTISRDNAKNTVYLQMNSLKPEDTAVYYCNTASYVSWYVHYYYWGQGTQVTVSS	low polyreactivity
QVQLVESGGGLVQAGGSLRLSCAASGYIFLRNAMGWYRQAPGKERELVAAIRRTGGSTYYADSVKGRFTISRDNAKHTVYLQMNSLKPEDTAVYYCAKRSYTGYESWGQGTQVTVSS	low polyreactivity
QVQLVESGGGLVQPGGSLRLSCAASGFIFYWYAMGWYRQAPGKERELVAAISYDTGSTYYADSVKGRFTISRDNAKITVYFQINSLKPEDTAVYYCAADASWRVYTGYYWGQGTQVTVSS	high polyreactivity
QVQLVESGGGLVQAGGSLRLSSAASGRLFGLNALGWYRQAPGKERELVASSTYSGGSTYYADSVKGRFTISRDNAKNTVYLQMNSLKQEDTAVYYCAGDSWYYWYSTYDYWGQGTQETVSS	high polyreactivity
